{
  "source": "paper PMC9645528",
  "about": "“Structural and functional basis of mammalian microRNA biogenesis by Dicer”",
  "key": {"[1]": {"molecular_target": "DicerO (oocyte isoform lacking HEL1) (Mus musculus, UniProt Q8R418-2 1-1678)", "sequence (Q8R418 other isoform, or with tags, fused parts or gaps)": "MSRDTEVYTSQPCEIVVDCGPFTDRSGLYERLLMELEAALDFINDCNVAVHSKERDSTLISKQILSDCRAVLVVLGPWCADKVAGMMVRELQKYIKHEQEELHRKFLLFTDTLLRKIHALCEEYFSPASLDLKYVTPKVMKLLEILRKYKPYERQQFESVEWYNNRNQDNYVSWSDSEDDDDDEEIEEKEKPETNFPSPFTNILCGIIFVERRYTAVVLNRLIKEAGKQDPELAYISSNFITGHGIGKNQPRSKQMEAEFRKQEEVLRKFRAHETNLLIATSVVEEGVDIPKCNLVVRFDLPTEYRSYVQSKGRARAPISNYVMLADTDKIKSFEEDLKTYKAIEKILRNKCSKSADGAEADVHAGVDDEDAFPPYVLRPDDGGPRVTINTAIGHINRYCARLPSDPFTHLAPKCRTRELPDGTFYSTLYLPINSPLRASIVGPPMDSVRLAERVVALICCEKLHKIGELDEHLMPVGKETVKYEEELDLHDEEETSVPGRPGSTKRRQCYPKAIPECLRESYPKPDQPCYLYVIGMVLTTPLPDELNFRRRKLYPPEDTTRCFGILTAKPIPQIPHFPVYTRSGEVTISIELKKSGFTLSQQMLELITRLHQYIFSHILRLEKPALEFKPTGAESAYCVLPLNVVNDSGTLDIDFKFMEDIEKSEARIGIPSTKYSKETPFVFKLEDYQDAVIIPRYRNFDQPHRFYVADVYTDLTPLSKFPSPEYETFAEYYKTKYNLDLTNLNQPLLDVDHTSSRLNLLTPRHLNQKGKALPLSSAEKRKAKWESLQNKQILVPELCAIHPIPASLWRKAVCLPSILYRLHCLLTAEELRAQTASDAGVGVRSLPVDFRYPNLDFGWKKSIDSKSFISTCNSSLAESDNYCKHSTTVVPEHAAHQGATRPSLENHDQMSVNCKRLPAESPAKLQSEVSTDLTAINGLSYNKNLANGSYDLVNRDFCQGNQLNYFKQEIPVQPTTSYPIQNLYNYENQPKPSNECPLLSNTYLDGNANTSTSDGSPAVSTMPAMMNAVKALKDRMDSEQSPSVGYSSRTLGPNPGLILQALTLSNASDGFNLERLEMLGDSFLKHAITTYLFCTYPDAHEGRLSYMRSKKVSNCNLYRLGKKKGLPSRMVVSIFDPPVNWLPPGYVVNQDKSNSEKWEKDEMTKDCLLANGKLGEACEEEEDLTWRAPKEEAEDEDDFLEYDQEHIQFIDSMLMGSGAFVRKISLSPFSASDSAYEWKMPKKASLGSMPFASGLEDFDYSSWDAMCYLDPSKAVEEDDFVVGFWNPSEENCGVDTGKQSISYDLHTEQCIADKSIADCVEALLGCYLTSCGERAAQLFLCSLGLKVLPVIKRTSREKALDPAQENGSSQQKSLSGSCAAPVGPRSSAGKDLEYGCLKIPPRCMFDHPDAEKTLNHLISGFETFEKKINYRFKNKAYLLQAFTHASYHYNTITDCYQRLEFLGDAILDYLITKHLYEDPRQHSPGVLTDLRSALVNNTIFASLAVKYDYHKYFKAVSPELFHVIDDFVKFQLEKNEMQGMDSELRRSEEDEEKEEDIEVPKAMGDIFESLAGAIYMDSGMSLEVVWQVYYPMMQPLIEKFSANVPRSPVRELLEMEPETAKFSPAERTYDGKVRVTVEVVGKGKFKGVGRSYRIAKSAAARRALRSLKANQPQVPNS", "experiment": "EMSA; EMSA conditions not in the material; protein storage/SEC buffer 50 mM Tris pH 8.0, 150 mM NaCl, 1 mM DTT, 2 mM MgCl2 (2 mM CaCl2 for WT Dicer structural work)", "conditions": "protein: recombinant, tags: N-term TwinStrep-HA-TEV, C-term TEV-2xFLAG-8xHis, hairpin, GCAA tetraloop, 3' overhang UU"}, "Dicer (full-length)": {"molecular_target": "Dicer (full-length) (Mus musculus, UniProt Q8R418 1-1916)", "sequence (Q8R418 whole entry)": "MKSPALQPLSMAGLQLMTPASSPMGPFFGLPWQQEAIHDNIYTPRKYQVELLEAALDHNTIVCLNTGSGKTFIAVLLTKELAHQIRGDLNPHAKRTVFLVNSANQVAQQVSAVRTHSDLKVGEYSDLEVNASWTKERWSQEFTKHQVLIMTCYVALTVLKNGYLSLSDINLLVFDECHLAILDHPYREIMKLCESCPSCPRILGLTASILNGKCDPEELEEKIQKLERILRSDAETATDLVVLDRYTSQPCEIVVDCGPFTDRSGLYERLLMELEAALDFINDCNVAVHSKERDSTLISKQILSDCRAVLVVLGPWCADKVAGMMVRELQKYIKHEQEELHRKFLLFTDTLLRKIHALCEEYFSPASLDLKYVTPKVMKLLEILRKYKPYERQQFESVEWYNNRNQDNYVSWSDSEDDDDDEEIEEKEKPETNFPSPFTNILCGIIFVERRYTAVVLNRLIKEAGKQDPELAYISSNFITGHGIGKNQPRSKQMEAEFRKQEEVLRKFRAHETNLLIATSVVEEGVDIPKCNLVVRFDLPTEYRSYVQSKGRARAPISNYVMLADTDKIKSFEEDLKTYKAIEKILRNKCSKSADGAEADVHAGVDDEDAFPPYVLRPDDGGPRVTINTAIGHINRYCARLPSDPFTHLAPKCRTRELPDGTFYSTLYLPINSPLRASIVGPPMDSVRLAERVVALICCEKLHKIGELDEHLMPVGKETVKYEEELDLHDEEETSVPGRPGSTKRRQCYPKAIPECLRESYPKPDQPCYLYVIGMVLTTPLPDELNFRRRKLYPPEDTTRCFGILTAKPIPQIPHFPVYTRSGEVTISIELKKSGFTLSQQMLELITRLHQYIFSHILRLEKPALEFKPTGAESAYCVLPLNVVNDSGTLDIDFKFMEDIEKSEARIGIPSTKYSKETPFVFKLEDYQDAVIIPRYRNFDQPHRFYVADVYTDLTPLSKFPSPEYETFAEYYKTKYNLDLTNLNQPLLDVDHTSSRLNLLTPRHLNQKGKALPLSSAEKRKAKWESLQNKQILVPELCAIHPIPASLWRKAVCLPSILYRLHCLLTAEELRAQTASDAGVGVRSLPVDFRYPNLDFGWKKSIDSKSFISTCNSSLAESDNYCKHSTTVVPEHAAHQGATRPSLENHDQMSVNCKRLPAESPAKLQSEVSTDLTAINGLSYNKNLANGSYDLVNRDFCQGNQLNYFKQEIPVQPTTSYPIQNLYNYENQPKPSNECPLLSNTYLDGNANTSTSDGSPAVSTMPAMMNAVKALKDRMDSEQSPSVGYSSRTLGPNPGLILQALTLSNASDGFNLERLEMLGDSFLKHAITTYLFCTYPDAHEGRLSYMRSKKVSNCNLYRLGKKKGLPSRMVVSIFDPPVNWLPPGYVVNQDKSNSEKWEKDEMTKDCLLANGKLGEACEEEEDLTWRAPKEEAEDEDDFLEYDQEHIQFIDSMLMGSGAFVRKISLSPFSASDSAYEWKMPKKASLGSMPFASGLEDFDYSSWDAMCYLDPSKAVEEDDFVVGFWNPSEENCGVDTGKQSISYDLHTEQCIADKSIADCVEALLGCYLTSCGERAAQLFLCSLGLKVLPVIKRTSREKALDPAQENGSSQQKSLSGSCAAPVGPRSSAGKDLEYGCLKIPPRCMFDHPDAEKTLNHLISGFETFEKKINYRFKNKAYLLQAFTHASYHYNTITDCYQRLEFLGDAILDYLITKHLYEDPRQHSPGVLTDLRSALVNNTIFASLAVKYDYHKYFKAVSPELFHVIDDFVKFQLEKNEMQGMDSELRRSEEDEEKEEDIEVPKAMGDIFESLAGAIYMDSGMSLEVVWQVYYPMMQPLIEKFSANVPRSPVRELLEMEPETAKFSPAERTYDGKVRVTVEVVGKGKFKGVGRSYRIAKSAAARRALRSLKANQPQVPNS", "experiment": "EMSA; EMSA conditions not in the material; protein storage/SEC buffer 50 mM Tris pH 8.0, 150 mM NaCl, 1 mM DTT, 2 mM MgCl2 (2 mM CaCl2 for WT Dicer structural work)", "conditions": "protein: recombinant, tags: N-term TwinStrep-HA-TEV, C-term TEV-2xFLAG-8xHis, hairpin, GCAA tetraloop, 3' overhang UU"}},
  "data": [
    {"binder": "30bp stem-loop (structured_RNA) RNA: AGAGGAGAGGGACAAUCAUAAAGGCCACUCGCAAGAGUGGCCUUUAUGAUUGUCCCUCUCCUCUUU", "values": [
      {"measurement": "Kd", "setting": "[1]; 30 bp stem", "value": "79 ± 7", "unit": "nM"},
      {"measurement": "Kd", "setting": "Dicer (full-length); 30 bp stem", "value": "120 ± 27", "unit": "nM"}
    ]},
    {"binder": "42bp stem-loop (structured_RNA) RNA: AGAGGAGAGGGACAAUAGAGGAGAGGGACAAUCAUAAAGGCCGCAAGGCCUUUAUGAUUGUCCCUCUCCUCUAUUGUCCCUCUCCUCUUU", "values": [
      {"measurement": "Kd", "setting": "[1]; 42 bp stem", "value": "55 ± 4", "unit": "nM"},
      {"measurement": "Kd", "setting": "Dicer (full-length); 42 bp stem", "value": "115 ± 20", "unit": "nM"}
    ]}
  ]
}
